Read-outs that look alike come from different tables or passages of the source. Starred links: 1 amine or outer side, 2 acyl side, 3 side chain; linkers in the order of their positions; H or OH if unused. Positions of bridges follow the written chain, without caps; N, C: chain ends. Groups on a side chain read outwards from the residue. *: point of attachment. γGlu = O=C(O)[C@H](CCC(=O)[*:2])N[*:1]; Palmitoyl = CCCCCCCCCCCCCCCC(=O)*; Isovaleryl = CC(C)CC(=O)*

Results on 22 molecules are retold here after patent US20190002503A1 (published 2019).

Assay in all cases: cell-based or functional assay
The target of test [1] is T1, human ferroportin (SLC40A1) fused in frame with GFP, stably expressed in HEK293 cells (human, UniProt Q9NP59 1-571).
T1 sequence (looked up): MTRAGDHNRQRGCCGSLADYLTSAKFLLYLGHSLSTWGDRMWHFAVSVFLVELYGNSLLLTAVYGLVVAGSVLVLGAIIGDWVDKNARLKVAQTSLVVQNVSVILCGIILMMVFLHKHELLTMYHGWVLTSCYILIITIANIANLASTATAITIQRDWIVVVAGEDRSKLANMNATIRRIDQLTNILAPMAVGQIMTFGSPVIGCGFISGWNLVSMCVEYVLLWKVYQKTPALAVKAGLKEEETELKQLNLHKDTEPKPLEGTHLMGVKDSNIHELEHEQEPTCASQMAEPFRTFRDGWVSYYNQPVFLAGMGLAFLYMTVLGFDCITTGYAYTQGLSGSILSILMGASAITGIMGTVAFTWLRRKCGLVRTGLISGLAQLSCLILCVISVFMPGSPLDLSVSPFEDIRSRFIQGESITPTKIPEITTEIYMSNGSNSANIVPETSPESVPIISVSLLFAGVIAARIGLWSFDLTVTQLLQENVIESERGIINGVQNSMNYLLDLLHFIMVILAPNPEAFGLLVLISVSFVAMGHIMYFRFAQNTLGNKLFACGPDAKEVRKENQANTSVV

Test [2] concerns the target T1, human ferroportin (SLC40A1) fused in …. The source holds these as a separate data set.
Test [3] has the same target. The source holds these as a separate data set.

Turning to DTHFPCIKFKPRSKGCK (N-terminal isovaleric acid; Lys 10 carries Ac (acetyl); C-terminal NH2 (amide)) [Compound 25], the “HEK-GFP cell based assay: potency EC50 (loss of ferroportin-GFP fluorescence)” value in test [1] is 14 nM.

B1: Compound 31 (peptide)
peptide: DTHFPCIKFXX
modifications: N-terminal isovaleric acid on each subunit; the two subunits are joined by IDA-[βala] that carries Peg2-Palm
With B1, the “HEK-GFP cell based assay: potency EC50 (loss of ferroportin-GFP fluorescence)” value in test [2] is 8 nM.
In the case of DTHFPCIKFKPRSKGCK (N-terminal isovaleric acid; Lys 10 carries Palm; C-terminal NH2 (amide)) [Compound 20], the “HEK-GFP cell based assay: potency EC50 (loss of ferroportin-GFP fluorescence)” value in test [1] is 19 nM.
As to DTHFPCIKFKPRSKGCK (N-terminal isovaleric acid; Lys 10 carries PEG2-Palm; C-terminal NH2 (amide)) [Compound 16], the “HEK-GFP cell based assay: potency EC50 (loss of ferroportin-GFP fluorescence)” value in test [1] came out at 36 nM.
Still for that read-out and setting: the result for DTHFPCIKFKPRSKGCK (N-terminal isovaleric acid; Lys 10 carries PEG8; C-terminal NH2 (amide)) [Compound 21] reads 32 nM.
For H-DTHFPICIF-NH2 [Mini-Hepcidin 1-9], the “Potency EC50 (nM), ferroportin degradation in ferroportin-GFP HEK293 cells” value in test [3] stood at 712 nM.
Turning to Isovaleryl-DTHFPCIRFK([γGlu-Octanoic acid])-NH2 (also: dimer: two subunits joined at their C-termini through the Lys linker) [Compound 30], in test [2], the “HEK-GFP cell based assay: potency EC50 (loss of ferroportin-GFP fluorescence)” value was found to be 18 nM.

B2: RI-Mini Hepcidin (peptide)
peptide: FICIPFHTD
modifications: all residues are D-amino acids (retro inverse of mini-hepcidin); C-terminal NH2 (amide)
Turning to B2, in test [3], the “Potency EC50 (nM), ferroportin degradation in ferroportin-GFP HEK293 cells” value is above 10000 nM.

B3: Compound 13 (peptide)
peptide: DTHFPCIKFKPRSKGCK
modifications: N-terminal isovaleric acid; Lys 10 carries isoGlu-Myristic acid; C-terminal NH2 (amide)
For the molecule B3, in test [1], the “HEK-GFP cell based assay: potency EC50 (loss of ferroportin-GFP fluorescence)” value is 10 nM.
In the case of DTHFPCIKFKPRSKGC (N-terminal isovaleric acid; Lys 10 carries IsoGlu-Palm; C-terminal NH2 (amide)) [Compound 9], the “HEK-GFP cell based assay: potency EC50 (loss of ferroportin-GFP fluorescence)” value in test [1] amounted to 11 nM.

B4: Compound 19 (peptide)
peptide: DTHFPCIKFKPRSKGCK
modifications: N-terminal isovaleric acid; Lys 10 carries PEG11-Myristic acid; C-terminal NH2 (amide)
Consider B4, for which the “HEK-GFP cell based assay: potency EC50 (loss of ferroportin-GFP fluorescence)” value in test [1] stood at 30 nM.

B5: Compound 24 (peptide)
peptide: DTHFPCIKFKPRSKXCK
modifications: N-terminal isovaleric acid; Lys 10 carries Ahx-Palm; Sar (sarcosine) at 15; C-terminal NH2 (amide)
In the case of B5, the “HEK-GFP cell based assay: potency EC50 (loss of ferroportin-GFP fluorescence)” value in test [1] is 10 nM.

B6: Compound 18 (peptide)
peptide: DTHFPCIKFKPRSKGCK
modifications: N-terminal isovaleric acid; Lys 10 carries PEG11-Lauric acid; C-terminal NH2 (amide)
B6: the “HEK-GFP cell based assay: potency EC50 (loss of ferroportin-GFP fluorescence)” value in test [1] came to 36 nM.
As to DTHFPCIKFKPRSKGCK (N-terminal isovaleric acid; Lys 10 carries Ahx-Palm; C-terminal NH2 (amide)) [Compound 22], in test [1], the “HEK-GFP cell based assay: potency EC50 (loss of ferroportin-GFP fluorescence)” value is 18 nM.

B7: Compound 10 (peptide)
peptide: DTHFPCIKFKPRSKXC
modifications: N-terminal isovaleric acid; Lys 10 carries IsoGlu-Palm; Sar (sarcosine) at 15; C-terminal NH2 (amide)
With B7, in test [1], the “HEK-GFP cell based assay: potency EC50 (loss of ferroportin-GFP fluorescence)” value was 10 nM.
DTHFPCIKFKPRSKGCK (N-terminal isovaleric acid; Lys 10 carries PEG11-Palm; C-terminal NH2 (amide)) [Compound 17]: in test [1], the “HEK-GFP cell based assay: potency EC50 (loss of ferroportin-GFP fluorescence)” value came out at 30 nM.

B8: Compound 6 (peptide)
peptide: DTHFPCIKFKPRSKXCK
modifications: N-terminal isovaleric acid; Lys 10 carries IsoGlu-Palm; Sar (sarcosine) at 15; C-terminal NH2 (amide)
On to B8, for which the “HEK-GFP cell based assay: potency EC50 (loss of ferroportin-GFP fluorescence)” value in test [1] was found to be 11 nM.

B9: Compound 12 (peptide)
peptide: DTHFPCIKFKPRSKGCK
modifications: N-terminal isovaleric acid; Lys 10 carries isoGlu-Lauric acid; C-terminal NH2 (amide)
For the molecule B9, the “HEK-GFP cell based assay: potency EC50 (loss of ferroportin-GFP fluorescence)” value in test [1] came out at 14 nM.

B10: Compound 15 (peptide)
peptide: DTHFPCIKFKPRSKGCK
modifications: N-terminal isovaleric acid; Lys 10 carries isoGlu-Isovaleric acid; C-terminal NH2 (amide)
Consider B10, for which the “HEK-GFP cell based assay: potency EC50 (loss of ferroportin-GFP fluorescence)” value in test [1] was 26 nM.

B11: Compound 32 (peptide)
peptide: DTHFPCIKFXX
modifications: N-terminal isovaleric acid on each subunit; the two subunits are joined by IDA-[βala] that carries Peg11-Palm
As to B11, the “HEK-GFP cell based assay: potency EC50 (loss of ferroportin-GFP fluorescence)” value in test [2] came out at 13 nM.
Turning to Isovaleryl-DTHFPCKKFK([γGlu-Palmitoyl])PRSKGCK-NH2 (disulfide 6-16 (inferred)) [Compound 11], in test [1], the “HEK-GFP cell based assay: potency EC50 (loss of ferroportin-GFP fluorescence)” value was determined as 22 nM.

B12: Compound 14 (peptide)
peptide: DTHFPCIKFKPRSKGCK
modifications: N-terminal isovaleric acid; Lys 10 carries isoGlu-Bioitin (biotin); C-terminal NH2 (amide)
For the molecule B12, in test [1], the “HEK-GFP cell based assay: potency EC50 (loss of ferroportin-GFP fluorescence)” value was found to be 29 nM.
